Measurements as given in the nanobody polyreactivity screen of Harvey et al. (2022).

Assay: yeast display, Sf9 membrane polyspecificity reagent, FACS + sequencing; frameworks hold sequencing errors
Outline: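 Galactose-induced (36–48 hours) yeast carrying a synthetic nanobody display library were exposed to 10% biotinylated, detergent-solubilized Sf9 membrane reagent at 4 °C for 1 hour. FACS followed streptavidin microbead enrichment, using low and high (top ~1%) gates for expression (anti-HA) and reagent binding (streptavidin). Colony PCR, MiSeq 2 × 250 sequencing and CDR-length filtering followed. Labels for polyreactivity reflect the gate of origin.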

Sequence	polyreactivity (PSR sort gate)
QVQIVESGGGLVQAGRSLRLSCAASGLIFRRYTMGWYRQAPGKERELVAAIRNSGSSTDYADSVKGRFTISRDNAKNTVYLQMNSLKPEYTAVYYCAKRSACKLTYDSWGQGTQVTGSS	low polyreactivity
QVQLVESGGGLVQAGGSLRLSCAASGSIFQYYVMGWYRQAPGKERELVAAISQSGGRTYYADSVKGRFTISRDNAKNTVYLQMNSLKPVDTAVFYCAADSRNAEYDYWGQGTQVTVSS	high polyreactivity
QVQLVESGGGLVQAGGSLRLSCAASGRTFATYAMGWYRPAPGKERELVAAISRSGSTTYYADSVKGRFTISRDNAKNTVYLQMNSLKPEDTAVYYCNAKFRKADYDYWGQGTQVTVSS	high polyreactivity
QVQLVESGGGLVQAGGSLRLSCAASGFTFAKNAMGWYRQAPGKERELVADITYSGGSTYADSVKGRFTISRDNAKNTVYLQMNSLKPEETAVYYCAADARRRSGYDYWGQGTQVSVSS	low polyreactivity
QVQLVESGGGLVQAGGSLRLSCAASGRTFYIYAMGWYRQAPGKERELVASINWSTGRTYYADSVKGRFTISRDNAKNTVYLQMNSLKPEDTAVYYCATDGDYYYISQGRRGYRYNYWGQGTQVTVSS	high polyreactivity
QVQLVESGGGLVQTGGSLRLSCAASGSIYGEYAMGWYRQSPGKEREFVADITWSDGSTYYADSVKGRFTISRDNAKNTVYLQMNSLKPEDTAVYYCAADSVLDRQVLYLWPWYLGDYWGQGTQVTVSS	low polyreactivity
QVQLVESGGGLVQAGGSLRLSCAASGFTFTKYDMGWYRQAPGKETELVAVITWSGGSTYYADSVKGRFTISRDNAKNTVYLQMNSLKPEDTAVYYCNAEAPRYTYGRMDYWGQGTQVTVSS	low polyreactivity
QVQLVESGGGLVQAGGSLRLSCAASGRIFDIYTMGWYRQAPGKERELVASITKRGGSTYYADSVKGRFTISRDNAKNTVYLQMNSLKPEDTAVYYCNAVYSWYRRYGLEGYWGQGTQVTVSS	high polyreactivity
QVQLVESGGGLVQAGGSLRLSCAASGFTITRYAMGWYRQAPGKERELVARITGRGGGTFYADSVKGRFTISRDNAKNTVYLQMNSLKPEDTAVYYCNTDYGSSYNYWGQGTQVTVSS	high polyreactivity
QVQLVESGGGLVQAGGSLRLSCAASGRIFQDNAMGWSRQAPGNERELVAAISKSGGITYYADSVKGRFTISRDNAKNTVYLQMNSLKPEDTAVYNCAAVWSRFLISYSTGWWFEYWGQGTQVTVSS	low polyreactivity
QVQLVESGGGLVQAGGSLRLSCAASGRIFDYNAMGWYRQAPGKERELVAAITSAGGTNYADSVKGRFTISRDNAKNTVYLQMNSLKPEDTAVYDCAADGSGYYDWYYYWGQGTQVTVSS	low polyreactivity
QVHLVDSGGGLVQAGGSLRLSCAASGSISYDNAMGWYRQAPGKERELVAAITFSGDSTNYADSVKGRFTISRDNAKNTVYLQMNSLKPEDTAVYYCAASQVSDTTRFGYWGQGTQVTVSS	low polyreactivity
QDQLVESGGGLVQAGGSLRLSCAASGFTFYFYAMGWYRQAPGKERELVDAISRSGSRTYYADSVKGRFTISRDNAKNSVYLQMNILKPEDTAVYYCARVRPRGLYFVLHYDYWGQGTQVTVSS	high polyreactivity
QVQLVESGGGLVQAGGSLRLSCAASGRILRQYAMGWYRQAPGKERELVARISYSGGSTYYADSVKGRFTISRDNAKNTVYLQMNSLKPEDTAVYYCAARRPYKYDYWGQGTQVTVSS	high polyreactivity
QVQLVESGGGLVQAGGSLRLSCAASGRTFSYYAMGWYRQATGKERELVAAINSSGGRTYYADSVKGRFTISRDNAKNTVYLQMNSLKPEDTAVYYCAARSYSTSSHHGYWGQGTQVTVSS	high polyreactivity
QVQLVESVGGLVQAGGSLRLSCAASGGTFGYNAMGWYRQAPGKERELVAAIRVNGGSTYYADSVKGRFTISRDNAKNTVYLQMNSLKPEDTAVYYCAAESRVYRTSYWYGYWGQGTQVTVSS	high polyreactivity
QVQLVESGGGLVQAGGSLRLSCADSGNTFYANAMGWYRQAPGKEREFVASITRSGGSTYYADSVKGRFTISRDNAKNTVYLQMNSLKPEVTAVYYCAADSWFKYDYWGQGTQVTVSS	low polyreactivity
QVQLVESGGGLVQAGGSLRLSCAASGRTFWGNAMGWYRQAPGKEREFVAGITQSDGSTYYADSVKGRFTISRDNAKNTVYLQMNSLKPEDTAVYYCAATPYSTQGLRPKFDYWGQGTQVTVSS	low polyreactivity
QDQLVESGGGLVQAGGSLRLSCAASGNIFTSNAMGWYRQAPGKERELVAANTSGGSTYYADSVKGRFTISRDNAKNTVYLQMYSLKPEDTAVYFCASLRRPHLRPYYYWGQGTQGTVSS	high polyreactivity
QVQLVESGGGLVQAGGSLRLSCAASGSILPVYAMGWYRQAPGKERELVAAISVSGGSTRYADSVKGRFTISRDNAKNTVYLQMNSLKPEDTAVYYCAARYRYSYGYWGQGTQVTVSS	high polyreactivity
QVQLVESGGGLVQAGGSLRLSCAASGRTCGYNAMGWYRQAPGKERELVAAISWSGTRSYYADSVKGRFTSSRDNAKNTVYLQMNSLKPEDTAVYYCAKRTLYGRTWSTSDYWGQGTQVTVSS	high polyreactivity
QVQLVESGGGLVQAGGSLRLSCAASGSIFHLYAMGWYRQATGKERELVAAISWSGGSTYYADSVKGRFTISRDNAKNTVYLQMNSLKPEDTAVYYCAAEYYYQFYDYPYGYEYWGQGTQVTVSS	high polyreactivity

Sequence	polyreactivity (PSR sort gate)
QVQLVESGGGLVQAGGSLRLSCAASGRTFRLYAMGWYRQAHGKERELVARISRGGSTYYADSVKGRFTISRDNAKNTVYLQMNSLKPEDTAVYYCAAVAYALGFASKEDYWGQGTQVTVSS	high polyreactivity
QVQLVESGGGIVQAGGSLRLSCAASGFTFNRNAMVWYRQAPGKERELVAAISWSGGSTYYADSVKGRFTISRYNAKNTVYLQMNSLKPEDTAVYYCAKGYRRVYGPFYYWGQGTQVTVSS	low polyreactivity
QVQLVESGGGLVQAGGSLRLSCAASGSTFGVYAMGWYRQAPGKERELVAAITKRGGDTYYADSVKGRFTISRDNAKNTVYLQMNSLKPEDTAVYYCAAGLYVSYYWYDYWGQGTQVTVSS	high polyreactivity
QVQIVDSGGGLVQAGGSLRLTCAASAITFSTNALGWNRQAPGKERELVAAITSVTSTYYADSVKGRFTISRDNAKNTVYLLMKSLKTEYTAVYYWAARLSRWPYFYEYNYWGQGTEVTVSS	low polyreactivity
QVQLVESGGGLVQAGGSLRLSCAASGITFPVYVMGWYRQAPGKERELVAAISNGGDTYYADSVKGRFTISRDNAKNTVYLQMNSLKPVDTAVYYCAAYYSFPNDYGYEYDYWGQGTQVTVSS	low polyreactivity
QVQLVESGGGLVQAGGSLRLSCAASGSIFDDYAMGWYRQAPGKERELVAANSGSGDITYYADSVKGRFTISRDNAKNTFYLQMNSLKPEDTAVYYCAAESVYTFYWGQGTQVTVSS	high polyreactivity
QVQLVESGGGLVQAGGSLRLSCAASGRIFGWNAMGWYRQPPGKERELVAAISADGNTYYADSVKGRFTISRDNAKNTVYLQMNSLKPEDTAVYYCNAYVYSGYSIRDYWGQGTQVTVSS	high polyreactivity
QVQLVESVGGLVQAGGSLRLSCAASGIIFWLSTMGWYRQAPGKERELVAAITSGGSTYYADSVKGRLTISRDNAKNTVYLQMNSLKQEDTALYYCAAVPRYRRWKYDYWGQGTQVTVSS	high polyreactivity
QVQLVESGGGLVQAGGSLRLSCAASGSIFAYNAMGWYRQAPGKERELVAAITDSGGSTFYADSVKGRFTISRDNAKTTVYLQMNSQKPEDTAVYYCATSGDRLVWGQCTQVTVSS	low polyreactivity
QVQLVESGGGLVQAGGRLRLSCAASGITLRRNALVWYRQAPGKERELVARITWRGSTYYAESVKGRFTISRDNAKNTVYLQMNSLKPADTAVYYCAADYRSWQPPTKLPPGASDYWGQGTQVTVSS	low polyreactivity
QVQLVESGGGLVQAGGSLRLSCAASGSTFNRYAMGWYRQAPGKERELVASISCSGGASTYYADSVKGRFTISRDNAKNTVYLQMNSLKPEDTAVYYCAVSRDSYGGKGSVLYDYWGQGTQVTVSS	low polyreactivity
QVQHVESAAGLVQAGGSLRLSCAASGRIFYATVMGWYRQAHGKVREFVAAIRWSGSTYYADSVKGRFTISRDNAKNTVYLQMNSLKRVDTAVYYCADEGSRWYYFFYVGGGYWGQGTQVTVSS	low polyreactivity
QVQLVESGGGLVQAGGSLRISCAASGSNFSYYAMGWYRQAPGKEREFVAAISWSGGSTYYADSVKGRFTISRDNAKNTVYLQMNSLKPEDTAVYYCAAELSLSWLVPEVPYYYWGQGTQVTGSS	low polyreactivity
QVQLEDSGGGLVQAGGSLPLSCAASGRTFGLNVMGWSRQATGTERELLASIRNIGGSTYYADSVKGRFTISCDNAKNTVYLQMNSLKPEDTAVFYCAAVTRSWVHYRYYYWGQGTQVTVSS	high polyreactivity
QVQLVESGGGLVQAGGSLRLSCAASGYIYNGYAMGWYRQAPGKERELVAAIDWSGGSTYYADSVKGRFTISRDNAKNTVYLQMNSLKPEDTAVYYCNASEWLSASYYWGQGTQVTVSS	high polyreactivity
QVQLVESGGGLVQAGGSLRLSCAASGSTFAYNAMGWYRQAPGKERELVARISSSGDITYYADSVKGRFTISRDNAKNTVYLQMNSLKPEDTAVYYCAKRYLTRYKGYYYWGQGTQVTVSS	high polyreactivity
QFQLVESGGGLVQAGGSLRLSCAASGSTFIGYAMGWYRQAPGKERELVAAITGGGRTNYADSVKGRFTISRDNAKNTVYLQMNSLKPEDTAVYYCAARGVSRGYAKPYYSRGDYWGQGTQVTVSS	low polyreactivity
QVQLVESGGGLVQAGGSLRLSCAASGFTFYTNVMAWYRQAPGKERELVAAINSGGSTNYADSVKGRFTISRDNAKNTVFLQMNSLKPEDTAVYYCNKRGTEIGYDYWGQGTQVTVLS	low polyreactivity
QVQLVESGGGLVQAGGSLSLSCAASGNTFWGYAMGWYRQAPGKEREFVARINWSGGRTYYAESVKGRFTISRDNAKNTVYLQMNSLKPEDTAVYYCAATSLIYGYRTYDYWGQGTQVTVSS	high polyreactivity
QVQLVESGGGLVQAGGSLRLSCAASGFTFRAYAMGWYRQAPGKEREFVAAISRRGGSTSYADSVKGRFTISRDNAKNTVYLQMNSLKPEDTAVYYCAATYQILTTSAHDSWGQGTQVTVSS	high polyreactivity
QVQLVESGGGLVQAGGSLRLSCAASGFTFKYYAMGWYRQAPGKERELVARISWSGGSTYYADSVKGRFTISRDNAKNTVYLQMNSLKPEDTAVYYCAAKLYSKRTGARMNYWGQGTQVTVSS	high polyreactivity
